Measurements: the nanobody polyreactivity screen of Harvey et al. (2022)

Test: yeast display, Sf9 membrane polyspecificity reagent, FACS + sequencing; frameworks hold sequencing errors
Summary of the method: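 Nanobodies from a synthetic yeast display library (Saccharomyces cerevisiae BJ5465), induced 36–48 hours with galactose, were stained 1 hour at 4 °C with 10% biotinylated, detergent-solubilized Sf9 membrane reagent, enriched on streptavidin microbeads, then FACS-sorted. Anti-HA (expression) and streptavidin (reagent binding) fluorescence set low and high (top ~1%) gates. Polyreactivity labels come from the gate of origin. Genes were colony-PCR amplified, MiSeq 2 × 250 sequenced and filtered by CDR length.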
With “QVQLVESGGGLVQAGGSLRLSCAASGGTFEFYTMGGYRQAPGKERELVAVINASGDSTYYADSVKGRFTISRDNAKNTVYLQMNSLKPEYTAVYYCAADHRGEYDYWGQGTQVNVSS” the “polyreactivity (PSR sort gate)” value was “low polyreactivity”.
In the case of “QVQLVESGGGLVQAGGSLRLSCAASGITFRTYAMGWYRQAPGKERELVAAISSSGGSTYYADSVKGRFTISRDNAKNTVYLQMNSLKPADTAVYYCAAEWIADLSSPVWYDYWGQGTQVTVSS”, the “polyreactivity (PSR sort gate)” value is reported as “high polyreactivity”.
For “AVQLVESGGGLVQAGGSLRLSCAASGSTCTGMTWDGRHRRLGRKELVAGIRSAGSTNYADSVKGRFTISGDNAKITVYLQLNSLKPEDTAVYYCAKDYRWVWRKYGYWGQGTQVTVSS”, the “polyreactivity (PSR sort gate)” value was “low polyreactivity”.
For “QVQLVESGGGLVQAGGSLRLSCAASGSIFGQNAMGWYRQAPGKEMELVAAIRVSGGSTYYADSVKGRFTNSRDNAKNTVYLQKNSLKPEDTAVYYCNARYRGYYGPKTHGVTYYYWGQGTQVTVSS”, the “polyreactivity (PSR sort gate)” value was “low polyreactivity”.
For “QVQLVESGGGLVQAGGSLRLSCAASGSIFGNNAMGWYRQARGKERELVAVITDGGNTYYADSVKGRFTISRDNAKNTVYLQMNSLKPEDTAVYYCNADWWGDSDYWGQGTQVTVSS”, the “polyreactivity (PSR sort gate)” value was “low polyreactivity”.
For “QVQLVESGGGLVQAGGSLRLSCAASGGIIDWYVKGWYRQAPGTERELVAAISYKGGSTYYADSVKGRFTISRDYAKTTGYFQMNSLKPEETAVYDCAAGVTSPYRYVWYDYWGQGTQVTVSS”, the “polyreactivity (PSR sort gate)” value was “low polyreactivity”.
For “QVQLVESGGGLVQAGGSLRLSCAASGLIFVNAMGWYRQAPGKEREFVAAITYSTGSTYYADSVKGRFTISRDNAKNTVYLQMNRLKPEDTAVYYCAKDRSGHGTERDYWGQGTQVTVSS”, the “polyreactivity (PSR sort gate)” value was “low polyreactivity”.
In the case of “QVQLVESGGGLVQAGGSLRLSCAASGRIFALYAMGWYRQAPGKERELVAAITWRGGRTRYADSVKGRFTISRDNAKNTVYLQMNSLKPEDTAVYYCNKRLFASRYDYWGQGTQVTVSS”, the “polyreactivity (PSR sort gate)” value is reported as “high polyreactivity”.
In the case of “QVQLVESGGGLVQAGGSLRLSCASSARIFFWYTMGWYSQAPGKERELVAAITSSGNTNYADSVKGRFTISRDNAKNTVYLQMNSLKPEDTAVYYCATGSYSYYSLFDYWGQGTQVTVSS”, the “polyreactivity (PSR sort gate)” value is reported as “low polyreactivity”.
With “QLQLVESGGGLVQAGGSLRLSCAASGSTSVTNAMGWYRQAPGKEREFVATINYSGTSTYYADSVKGRFTISRDNAKNTVYLQMNSLKPEDTAVYYCNAHDFGFYRFSLPGYDYWGQGTQVTVSS” the “polyreactivity (PSR sort gate)” value was “low polyreactivity”.
For “QVQLVESGGGLVQAGGSLRLSCAASGYTFRYYAMGWYRQAPGKERELVAAISSGGSTYYADSVKGRFTISRDNAKNTVYLQMNSLKPEDTAVYYCATGPRIRYDYWGQGTQVTVSS”, the “polyreactivity (PSR sort gate)” value was “high polyreactivity”.
For “QVQLVESGGGLVQAGGSLRLSCAASGGIFVSYAMGWYRQAPGKERELVAAITSGGGTSYADSVKGRFTISRDNAKNTVYLQLTSLKPEDTAVYYCAARFLWSVFGRKGGYWGQGTQVTVSS”, the “polyreactivity (PSR sort gate)” value was “low polyreactivity”.
With “QVQLVESGGGLVQAGGSLRLSCAASGSIFKYYAMGSSRQAPGKERELVAAISTGGTTNYADSVKGRFTISRDNAKNTVYLQMNSLKPEDTAVYYCNRDYLVRSRYKYYYWGQGTQVTVSS” the “polyreactivity (PSR sort gate)” value was “low polyreactivity”.
For “QVQLVESAGGIVQEGGSLRLSCAASGGTFTNYALGWYRQAPGKERELVAAITDSGAHTYYADSVKGRFTISRDNAKNKVYLQMYCLKPEDTAVYYCNAELDLYTDFDYWGQVTQVTVSS”, the “polyreactivity (PSR sort gate)” value was “low polyreactivity”.
In the case of “QVQLVESGGGLVQAGGSLRLSCAASGRIFYFNAMGWYRQAPGKERELVADMSSGGRTNYADSVKGRFTISRDNEKNSVYLQMNSLKPEDSAVYYWIAEPYTSSVGYRGYDFDDWGQGTQVTVSS”, the “polyreactivity (PSR sort gate)” value is reported as “low polyreactivity”.
In the case of “QVQLQESGGGMEQAGGSLRLSCAASGYISWADYMVWYRQAPGKERELVAGIGYGSTTYYADSVKGRFTISRANAKNTAYLQMNSLKPEDTAVYYCAVGWYRDTAYKYWGQGTQVTVSS”, the “polyreactivity (PSR sort gate)” value is reported as “low polyreactivity”.
For “QVQLVESGGGLVQAGGSLRLSCAASGIIFPRYVMGWYRQAPGKERELVAAINRSGGSTYYADSVKGRFTISRDYAKNTVYLQMNSLKPEDTAVYYCAALDVRSYRGGYWGQGTQVTVSS”, the “polyreactivity (PSR sort gate)” value was “high polyreactivity”.
With “QVQLVESGGGLVQAGGSLRLSCAASGSTFAVIVMGWYRQAPGKERELVATITYRDGRTYYADSVKGRFTISRDNAKNTVYLQMNSLKPEDTAVYYCAADDEYKQEAEMDSWGQGTQVTVSS” the “polyreactivity (PSR sort gate)” value was “low polyreactivity”.
In the case of “QVQLVESGGGLVKAGGSLRLSCAASGSTFYAYAMGWSRQAPGKERELVAAISSSGGSTYYADSVKGRFTISRDNAKNTVYLQMNSLKPEDTAVYYCAAYDSVQIYWILGFDYWGQGSQVTVSS”, the “polyreactivity (PSR sort gate)” value is reported as “low polyreactivity”.
For “QVQLVESGGGLVEAGGSLRLSCAASGSTFTYYAMGWFRPAPGKERELVAAISSSGTSTYYADSVKGRFTLSRDNEKNTVSLQLNSLKPEDPAVYYCAADYYHTRGEADYEYAYWGKGTQVTVSS”, the “polyreactivity (PSR sort gate)” value was “low polyreactivity”.
With “QVQLVESGGGLVQAGGSLRLSCAASGFTFVKNAMGWYRQAPGKERELVAALSSRGGSTYYADSVKGRFTISRDNAKNTVYLQMNSLKPEDTAVYYCATERERTMGYWGQGTQVTVSS” the “polyreactivity (PSR sort gate)” value was “high polyreactivity”.
For “QVQLVESGGGLVQAGGSLRLSCAASGFIFSYYAMGWYRQAPGKERELVAAMSSSGSRTYYADSVKGRFTISRDNAKNTVYLQMNSLKPEDTAVYYCAARGWFRGEFDYWGQGTQVTVSS”, the “polyreactivity (PSR sort gate)” value was “high polyreactivity”.
For “QVQLVESGGGLVQAGGRLRLSCAASGSIFDLNAMGWYRQAPGKERELVAAISSGGGTYYADSVKGRFTISRDNAKNTVYLQMNSLKPEDTAVYYCNRVTRWTYNYWGQGTQVTVSS”, the “polyreactivity (PSR sort gate)” value was “high polyreactivity”.
In the case of “QVQLVESGGGLVQAGGSLRLSCAASGRTFLRYAMGWYRQAPGKERELVAAITYGGRTNYADSVKGRFTISRDNAKNTVYLQMNSLKPEDTAVYYCAADRTYYYGMRVDYWGQGTQVTVSS”, the “polyreactivity (PSR sort gate)” value is reported as “high polyreactivity”.
In the case of “QVQLVESGGGLDQAGGSLRLSCAASGSIFDYYAMGWYRQAPGKERELVARISYSGGTTYYADSVKGRFTISRDNAKNTVYLQMNSLKPEDTAVYYCNARIPYSWRYGYWGQGTQVTVSS”, the “polyreactivity (PSR sort gate)” value is reported as “high polyreactivity”.
For “QVQLVESGGGLVQAGGSLRLSCAASGIIFEGYAMGWYRQAPGKERELVAGITIGDITYYADSVKGRFTISRDNAKNTVYLQMNSLKPEDTAVYYCAADSYYYQTAYDSWGQGTQVTVSS”, the “polyreactivity (PSR sort gate)” value was “low polyreactivity”.
With “QVHLVESGGGLVQAGGSLRLSCPASGIIFVPNAMGWYRQAPGKEREFVAAISRSGTSTYYADSVKGRFTISRDNAKNTVYLQMNSLKPEDTAVYYCAKSAYRSYSAFGYWGQGTQVTVSS” the “polyreactivity (PSR sort gate)” value was “high polyreactivity”.
For “QVQLVESGGGLVQAGVSLRLSCAASGFTFGRYAMGWYRQAPGKERELVAAISNSGGSTYYADSVKGRFTISRDNAKNTVYLQMNSLKPEATAVYYCAARDSYWSVYYWGQGTQVTVSS”, the “polyreactivity (PSR sort gate)” value was “high polyreactivity”.
With “QVQLVESGGGLVQAGGILRLSCPASGRTFVNYAMGWYRQQPGKESELVAAITSRGGSTYYADSVKGRFTISRDNAKNSVFLQMNSLKPEDTAFYYCAAGEYYYWGQGTQVTVSS” the “polyreactivity (PSR sort gate)” value was “high polyreactivity”.
For “QVQLVESGGGLVQAGGSLRLSCAASGRIFFDYAMGWYRQAPGKERELVAAISSGGSRTYYADSVKGRFTISRDNAKNTVYLQMNSLKPEDTAVYYCAADSTVYQDEYWGQGTQVTVSS”, the “polyreactivity (PSR sort gate)” value was “high polyreactivity”.
In the case of “QVQLEESGGGLVQAGGSLRLSCAASGGTFDEYAMGWSRQAPGKERELVATISWNSGSTYYADSVKGRFTISRDNAKNTVYLQMNSLKPEDTAVYYCATGRNVGVWSDDYWGQGTQVTVSS”, the “polyreactivity (PSR sort gate)” value is reported as “high polyreactivity”.
In the case of “QFQLVDSGGGLVQAGGSLRLSCAATGSTQPGYAMGWYRQAPGKERELVAAITSRGGTTYYADSVKGRFTISCDNAKNTVYLQMNSLKPEDTAVYYCAPYTSYASDYWGQGTQVTVSS”, the “polyreactivity (PSR sort gate)” value is reported as “high polyreactivity”.
For “QVQLVESGGGLVQAGGSLRLSCAASGSTYGYAMGWYRQAPGKERELVAAISSSGGRTYYADSVKGRFTISRDNAKNTVYLQMNSLKPEDTAVYYCAAGGFSQHGHGYWGQGTQVTVSS”, the “polyreactivity (PSR sort gate)” value was “high polyreactivity”.
For “QVQLVESGGGLVQAGGSLRLSSAASGSIFVKNARGWYRQAPGKVRELVARISFSGGSTYYADSVKGRFTISRDNAKNTVYLQMNSLKPEDTAVYYCAKTVLRTEYGWWIKFDYWGQVTQVTVSS”, the “polyreactivity (PSR sort gate)” value was “low polyreactivity”.
In the case of “QVQLVESGGGLVQAGGRLRLSCAASGSTFRYYALGWYRQAPGKERELVAVISSTGSRTNYADSVKGRFTISRDNAKNTVYLQMNSLKPEHTAVYYCAADTTRRAPGYYYWGQGTQETVSS”, the “polyreactivity (PSR sort gate)” value is reported as “high polyreactivity”.
For “QVQLVESGGRLVQAGGSLRLSCAASGRIFKSYAMGWDRQAPGKERELVAAISRSGGRTYYADSVKGRFTISRDTAKNTVYLQMICLKPEDTAVYFCAGTTIVAPYWGQGTQVTVST”, the “polyreactivity (PSR sort gate)” value was “low polyreactivity”.
For “QVQLVESGGGLVQAGGSLRLSCAASGRIFGNNAMGWYRQAPGKERELVAAITSGGSTNYADSVKGRFTISRDNAKNTVYLQMNSLKPEDTAVYYCAKRWVYKYRHYDYWGQGTQVTVSS”, the “polyreactivity (PSR sort gate)” value was “low polyreactivity”.
In the case of “QVQIVESGGGLVQAGGSLRLSCAASGRIFDDYAMGWYRQAPGKEREFVAAISTSGGSTYYADSVMGRFTISRDNAKNTVYLKMNSLKPEDTAVYYCNKYGYYGWFGSRYWHDYWGQGTQVTVAS”, the “polyreactivity (PSR sort gate)” value is reported as “high polyreactivity”.
For “QDQLVESGGGLVQAGGSLRLSCAASGLNLGIYAMGWYRQAPGKERELVAAISRGGGSTYYADSVKGRFTISRDNAKNTVYLQMNSLKPEDTAVFYCNAVRYRYGVFPYYYWGQGTQVTVSS”, the “polyreactivity (PSR sort gate)” value was “high polyreactivity”.
With “QVQIVESGGGLVQAGGSLRLSCAASGYIFPYYAMGWYRQAPGKERELVAGITTDGSSTYYADSVKGRFTISRDNAKNTVYLQMNSLNPEDTAVYYFYVYPGYTWGWYDYWGQGTQVTVSS” the “polyreactivity (PSR sort gate)” value was “low polyreactivity”.
In the case of “HVQLVESGGGLVQAGGSLRLSCAASGSTLYSYAMGWYRQAPGKARELVAAISIGDSTNYADSVKGRFTISRDNAKNTVYLQMNSLKPEDTAVYYCNADRALGYYVVVFIFEYWGQGTQVTVSS”, the “polyreactivity (PSR sort gate)” value is reported as “low polyreactivity”.
For “QVQLVESGGGLFQAGGSLRLTCAASGFTFSYNAMGWYRQAPGKERELVAAISSSGGSTYYADSVKVRFTISRENAKNTVYLPMNSLKPVDTAVYYCAVPYLTLYGRTYDYWGQGTLVTVSS”, the “polyreactivity (PSR sort gate)” value was “high polyreactivity”.
For “QVQLVESGGGLVQAGGSLRLSCAASGFIFTRYAMGWYRQAPGKERELVAAISGTGGSTYYADSVKGRFTISRDNSKNTFFLQMNSLKPEDTAVYYCAAGYFVYLKYGYWGQGTKVTVSS”, the “polyreactivity (PSR sort gate)” value was “high polyreactivity”.
